Our source for the EC50 values is patent publication EP4674869A1 (Immuneoncia Therapeutics, Inc., dated 2026).

Assay [1] has as its target T1, CD47 (UniProt Q08722 19-323, limits assumed).
T1 construct: whole, on cells; also called CD47 on cancer cells (MDA-MB-231, Raji)
Briefly: binding to Raji cancer cells; method not stated.

The target in assay [2] is T1, CD47. Briefly: binding to MDA-MB-231 cancer cells; method not stated.

T1 sequence (Q08722 19-323 limits assumed): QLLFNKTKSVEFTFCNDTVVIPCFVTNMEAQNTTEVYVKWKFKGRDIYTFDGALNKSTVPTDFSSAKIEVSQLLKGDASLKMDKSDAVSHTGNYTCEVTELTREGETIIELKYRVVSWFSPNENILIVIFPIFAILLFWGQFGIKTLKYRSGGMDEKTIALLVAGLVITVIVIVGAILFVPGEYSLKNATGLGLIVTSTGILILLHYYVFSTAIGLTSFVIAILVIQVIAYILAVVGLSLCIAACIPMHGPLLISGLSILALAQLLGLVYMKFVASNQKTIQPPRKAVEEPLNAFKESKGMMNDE

B1: IMC-002 (antibody, human IgG4 S228P, lambda, V domains shown)
VH: QVQLVQSGAEVKKPGASVKVSCKASGYTFTSYYMHWVRQAPGQGLEWMGIINPSGGSTSYAQKFQGRVTMTRDTSTSTVYMELSSLRSEDTAVYYCARSTLWVSEFDYWGQGTLVTVSS
VL: QSALTQPASVSGSPGQSISISCTGTSSDVGGHNYVSWYQQHPGKAPKLMIYDVRNRPSGVSNRFSGSKSGSTASLTISGLQTEDEADYYCNSYTGSRTYVFGSGTKLTVLG
notes: Fully human IgG4 kappa antibody with an S228P hinge mutation; also called anti-CD47 antibody; C47B10-H3-D4
B1: the EC50 – broadly, the concentration needed to bring the measured effect to its halfway point – in the assay with CD47 [1] worked out at 4.77 µg/mL; with CD47 [2], 5.73 µg/mL.
